Test results as given in patent US20080305517A1, “Transglutaminase Crosslinked Collagen Biomaterial for Medical Implant Materials” (ASTON UNIVERSITY, priority 2004, published 2008).

Experiments:
[1] = tested on: Type III collagen; assay: Collagen fibril formation rate (turbidity at 325 nm), type III collagen; format: biochemical
Description: (§1) FIG. 2. Type III collagen fibrillogenesis after neutralisation in the presence of transglutaminases. Collagen (3 mg/ml) was neutralised as in the methods and was treated with 0, 50 or 250 μg/ml of mTG (A) or tTG (B). 500 μM inhibitor R281 was used to confirm that the effects were due to transglutaminase activity. The absorbance at 325 nm was measured using a PYE Unicam SP1800 UV spectrophotometer. The temperature was controlled at 25° C. using a Techne C-85A circulator. Results are from the average of 3 independent experiments.
(§2) Collagen fibrillogenesis was monitored by measuring the absorbance (turbidity) at 325 nm using a PYE Unicam SP1800 UV spectrophotometer.

[2] = tested on: Type I collagen; assay: Collagen fibril formation rate (turbidity at 325 nm), type I collagen; format: biochemical, calf
Description: as §1, with “1.” for “2.”, “I” for “III”, “microbial TG” for “mTG”, “μM of the TGase” for “μM”, “N-Benzyloxycarbonyl-L-phenylalanyl-6-dimethyl-sulfonium-5-oxo-L-norleucine (‘R281’)” for “R281”
as §2

[3] = tested on: N,N′-dimethylcasein; assay: Transglutaminase activity: incorporation of [14-C]-putrescine into N,N′-dimethylcasein; format: biochemical; conditions: Unit = 1 nmol of putrescine incorporated per hour
Description: The incorporation of [14-C]-putrescine into N,N′-dimethylcasein, as described earlier by Lorand et al. (1972) was used to assay for TG activity and monitor the effects of the inhibitors. Unit of transglutaminase activity is 1 nmol of putrescine incorporated per hour.

[4] = Determination of ε-(γ-glutamyl)lysine cross-link (ion exchange amino acid analysis of digested collagen); format: physicochemical; conditions: for the equivalent (μg of protein) TG concentration
Description: Neutralised collagen mixture was subjected to treatment by both tissue and microbial TG. Samples of the neutralised collagen were treated with 50-1000 μg/ml of tTG, in a reaction mix consisting of 2 mM DTT and 5 mM CaCl2 in 10 mM Tris buffer (pH 7.4). The reaction mixture for the microbial enzyme simply consisted of 10 mM Tris buffer (pH 7.4). Incorporated fibronectin (Sigma-Aldrich, Poole, UK. Cat no. F0895) was used at concentrations of 5 μg/ml and 50 μg/ml. Transglutaminase was always added last to the collagen-reaction mix to minimise any self-imposed cross-linking. […]
Cross-linked and native samples of collagen were proteolytically digested by a modification of the methods of Griffin and Wilson (1984), which included an initial digestion with microbial collagenase (Clostridium histolyticum; 1 mg/ml, Sigma-Aldrich, Poole, UK. Cat no. C9891), prior to the addition of further proteases. […] Derivatisation was performed post column using o-pthaldialdehyde (0.8M boric acid, 0.78M potassium hydroxide, […] o-phthaldialdehyde, 0.5% (v/v) methanol, 0.75% (v/v) 2-mercaptoethanol, 0.35% (v/v) Brij 30) and the absorbance was measured at 450 nm. Dipeptide was determined by addition of known amounts of ε(γ-glutamyl)lysine to the sample and comparing peak areas.

[5] = 50 μg or 250 μg of TG, collagen 3 mg/ml, absorbance at 325 nm, 25° C., vs untreated

| inhibition of the transglutaminase effects on fibrillogenesis ([1]; 500 μM inhibitor) | inhibition of the transglutaminase effects on fibrillogenesis ([2]; 500 μM inhibitor) | Typical activities for the transglutaminases used [3] | Molecule | Activity of the transglutaminase used to pre-treat collagen for the cell experiments [3] | amount of isopeptide formed, comparison in words [4] | time taken to achieve gel formation [1, 5] | time taken to achieve gel formation [2, 5] |
| --- | --- | --- | --- | --- | --- | --- | --- |
| abolished these effects | abolished these effects | – | C[S+](C)CC(=O)CC[C@H](NC(=O)[C@H](Cc1ccccc1)NC(=O)OCc1ccccc1)C(=O)O.[Br-] [R281, N-Benzyloxycarbonyl-L-phenylalanyl-6-dimethylsulfonium-5-oxo-L-nor-leucine bromide salt, reference compound] | – | – | – | – |
| – | – | 16000-25000 Units/mg | mTG: Microbial transglutaminase from Streptoverticillium mobaraenase, purified from Activa WM (Ajinomoto) (protein, UniProt P81453 77-407, looked up) Protein-glutamine …: DSDDRVTPPAEPLDRMPDPYRPSYGRAETVVNNYIRKWQQVYSHRDGRKQQMTEEQREWLSYGCVGVTWVNSGQYPTNRLAFASFDEDRFKNELKNGRPRSGETRAEFEGRVAKESFDEEKGFQRAREVASVMNRALENAHDESAYLDNLKKELANGNDALRNEDARSPFYSALRNTPSFKERNGGNHDPSRMKAVIYSKHFWSGQDRSSSADKRKYGDPDAFRPAPGTGLVDMSRDRNIPRSPTSPGEGFVNFDYGWFGAQTEADADKTVWTHGNHYHAPNGSLGAMHVYESKFRNWSEGYSDFDRGAYVITFIPKSWNTAPDKVKQGWP | 16000 Units/mg | much greater increase (almost two-fold) | significant reduction | significant reduction |
